Starred links: 1 amine or outer side, 2 acyl side, 3 side chain; linkers in the order of their positions; H or OH if unused. Positions of bridges follow the written chain, without caps; N, C: chain ends. Non-standard residues stand in square brackets, D forms with d. Groups on a side chain read outwards from the residue. No end group written: not given here. *: point of attachment. Ala(1H-tetrazol-5-yl) = N[C@@H](Cc1nnn[nH]1)C(=O)O; PEG11 = NCCOCCOCCOCCOCCOCCOCCOCCOCCOCCOCCOCCC(=O)O; C18 diacid = O=C(O)CCCCCCCCCCCCCCCCC(=O)*; Dip = N[C@H](C(=O)O)C(c1ccccc1)c1ccccc1; γGlu = O=C(O)[C@H](CCC(=O)[*:2])N[*:1]; His(τ-Me) = Cn1cnc(C[C@H](N)C(=O)O)c1; Palmitoyl = CCCCCCCCCCCCCCCC(=O)*; β3hF = N[C@H](CC(=O)O)Cc1ccccc1; NMeK = CN[C@@H](CCCCN)C(=O)O; Isovaleryl = CC(C)CC(=O)*; Dab = NCC[C@H](N)C(=O)O; Dap = NC[C@H](N)C(=O)O; AEEA = NCCOCCOCC(=O)O; Ahx = NCCCCCC(=O)O
T1: human ferroportin (SLC40A1) fused in frame with GFP, stably expressed in HEK293 cells (human, UniProt Q9NP59 1-571)
T1 sequence (looked up): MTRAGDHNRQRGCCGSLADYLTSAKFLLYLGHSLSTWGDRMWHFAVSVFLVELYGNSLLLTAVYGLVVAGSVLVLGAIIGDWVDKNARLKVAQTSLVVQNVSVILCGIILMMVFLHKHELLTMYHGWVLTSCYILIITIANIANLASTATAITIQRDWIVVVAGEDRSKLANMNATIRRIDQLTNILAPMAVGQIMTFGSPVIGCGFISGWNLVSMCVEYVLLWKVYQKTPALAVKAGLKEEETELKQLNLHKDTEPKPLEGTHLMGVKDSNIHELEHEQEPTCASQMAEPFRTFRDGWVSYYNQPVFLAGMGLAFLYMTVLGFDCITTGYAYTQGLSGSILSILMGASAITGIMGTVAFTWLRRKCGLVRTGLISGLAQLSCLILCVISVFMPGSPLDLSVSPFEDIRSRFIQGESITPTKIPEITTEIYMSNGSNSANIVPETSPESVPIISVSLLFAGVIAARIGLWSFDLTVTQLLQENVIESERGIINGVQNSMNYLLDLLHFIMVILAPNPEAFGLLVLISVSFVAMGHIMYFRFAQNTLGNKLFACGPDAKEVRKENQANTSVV

T2: ferroportin endogenously expressed on T47D cells (HTB 133, ATCC) (human, UniProt Q9NP59 1-571)
T2 sequence (looked up): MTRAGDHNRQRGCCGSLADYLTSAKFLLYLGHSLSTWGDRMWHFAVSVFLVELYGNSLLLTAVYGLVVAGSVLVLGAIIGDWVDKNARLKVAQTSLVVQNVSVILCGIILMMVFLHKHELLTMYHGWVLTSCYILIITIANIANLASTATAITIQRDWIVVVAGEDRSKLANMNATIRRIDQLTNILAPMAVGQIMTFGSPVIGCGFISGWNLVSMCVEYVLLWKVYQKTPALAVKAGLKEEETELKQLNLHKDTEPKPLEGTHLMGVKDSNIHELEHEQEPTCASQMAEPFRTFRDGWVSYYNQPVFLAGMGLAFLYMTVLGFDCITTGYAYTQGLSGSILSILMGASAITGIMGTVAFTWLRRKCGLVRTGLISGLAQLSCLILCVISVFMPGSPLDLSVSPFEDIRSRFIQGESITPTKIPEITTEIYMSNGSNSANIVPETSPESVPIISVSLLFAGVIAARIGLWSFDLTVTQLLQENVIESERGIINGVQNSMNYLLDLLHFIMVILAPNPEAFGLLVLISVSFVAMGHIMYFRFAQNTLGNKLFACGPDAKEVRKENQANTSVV


Key:
Assay in all cases: cell-based or functional assay
[1] = target: T1, human ferroportin (SLC40A1) fused in …
[2] = target: T2, ferroportin endogenously expressed on …
[3] = target: T1, human ferroportin (SLC40A1) fused in …; remark: listed apart in the source

Binder	FPN EC50 [1] [nM]	T47D MSA IC50 [2] [nM]	FPN IC50 [3] [nM]
Isovaleryl-ETH[Dip]PAI[dK][β3hF]K([Ahx-Palmitoyl])[dK]A-NH2 (SMILES CCCCCCCCCCCCCCCC(=O)NCCCCCC(=O)NCCCC[C@H](NC(=O)C[C@H](Cc1ccccc1)NC(=O)[C@@H](CCCCN)NC(=O)[C@@H](NC(=O)[C@H](C)NC(=O)[C@@H]1CCCN1C(=O)[C@@H](NC(=O)[C@H](Cc1c[nH]cn1)NC(=O)[C@@H](NC(=O)[C@H](CCC(=O)O)NC(=O)CC(C)C)[C@@H](C)O)C(c1ccccc1)c1ccccc1)[C@@H](C)CC)C(=O)N[C@H](CCCCN)C(=O)N[C@@H](C)C(N)=O) [Isovaleric Acid-E-T-H-[Dpa]-P-A-I-[(D)Lys]-[bhPhe]-[Lys(Ahx_Palm)]-[(D)Lys]-A-NH2]	17.8	5.97	–
DiIsoAmylAmine_CH2_Acid-TH[Dip]PAIK([Ahx-Palmitoyl])[β3hF][dK]-NH2 [[DiIsoAmylAmine_CH2_Acid]-T-H-[Dpa]-P-A-I-[Lys(Ahx_Palm)]-[bhPhe]-[(D)Lys]-NH2]	25.9	52.9	–
Isovaleryl-ETH[Dip]PAIK([AEEA-AEEA-γGlu-C18 diacid])[β3hF][dK]-NH2 [Isovaleric Acid-E-T-H-[Dpa]-P-A-I-[Lys(1PEG2_1PEG2_IsoGlu_C18_Diacid)]-[bhPhe]-[(D)Lys]-NH2]	429	65.8	–
Isovaleryl-ETHFPAIK([Ahx-Palmitoyl])FEPRSKGAK-NH2 (SMILES CCCCCCCCCCCCCCCC(=O)NCCCCCC(=O)NCCCC[C@H](NC(=O)[C@@H](NC(=O)[C@H](C)NC(=O)[C@@H]1CCCN1C(=O)[C@H](Cc1ccccc1)NC(=O)[C@H](Cc1c[nH]cn1)NC(=O)[C@@H](NC(=O)[C@H](CCC(=O)O)NC(=O)CC(C)C)[C@@H](C)O)[C@@H](C)CC)C(=O)N[C@@H](Cc1ccccc1)C(=O)N[C@@H](CCC(=O)O)C(=O)N1CCC[C@H]1C(=O)N[C@@H](CCCNC(=N)N)C(=O)N[C@@H](CO)C(=O)N[C@@H](CCCCN)C(=O)NCC(=O)N[C@@H](C)C(=O)N[C@@H](CCCCN)C(N)=O) [Isovaleric Acid-E-T-H-F-P-A-I-[Lys(Ahx_Palm)]-F-E-P-R-S-K-G-A-K-NH2]	177	11.4	–
Isovaleryl-ETHFPAIK([γGlu-Palmitoyl])FEPRSKGAK-NH2 [Isovaleric Acid-E-T-H-F-P-A-I-[Lys(IsoGlu_Palm)]-F-E-P-R-S-K-G-A-K-NH2]	280	289	–
Isovaleryl-[Dap]TH[Dip]PAID[β3hF]K([Ahx-Palmitoyl])R-NH2 (lactam 1-8; SMILES CCCCCCCCCCCCCCCC(=O)NCCCCCC(=O)NCCCC[C@H](NC(=O)C[C@H](Cc1ccccc1)NC(=O)[C@@H]1CC(=O)NC[C@H](NC(=O)CC(C)C)C(=O)N[C@@H]([C@@H](C)O)C(=O)N[C@@H](Cc2c[nH]cn2)C(=O)N[C@@H](C(c2ccccc2)c2ccccc2)C(=O)N2CCC[C@H]2C(=O)N[C@@H](C)C(=O)N[C@@H]([C@@H](C)CC)C(=O)N1)C(=O)N[C@@H](CCCNC(=N)N)C(N)=O) [Isovaleric Acid-Dap-T-H-[Dpa]-P-A-I-D-[bhPhe]-[Lys(Ahx_Palm)]-R-NH2]	–	733	–
Isovaleryl-[Dab]TH[Dip]PAID[β3hF]K([Ahx-Palmitoyl])R-NH2 (lactam 1-8; SMILES CCCCCCCCCCCCCCCC(=O)NCCCCCC(=O)NCCCC[C@H](NC(=O)C[C@H](Cc1ccccc1)NC(=O)[C@@H]1CC(=O)NCC[C@H](NC(=O)CC(C)C)C(=O)N[C@@H]([C@@H](C)O)C(=O)N[C@@H](Cc2c[nH]cn2)C(=O)N[C@@H](C(c2ccccc2)c2ccccc2)C(=O)N2CCC[C@H]2C(=O)N[C@@H](C)C(=O)N[C@@H]([C@@H](C)CC)C(=O)N1)C(=O)N[C@@H](CCCNC(=N)N)C(N)=O) [Isovaleric Acid-Dab-T-H-[Dpa]-P-A-I-D-[bhPhe]-[Lys(Ahx_Palm)]-R-NH2]	–	131	–
K(Isovaleryl)TH[Dip]PAIK([Ahx-Palmitoyl])[bhF] (also: marks (1:1) at Lys1 and (1:2) at bhF9 not explained) [[Lys(IVA(1:1)-T-H-[Dpa]-P-A-I-[Lys(Ahx_Palm)]-bhF(1:2)]	–	–	2150
Isovaleryl-K(Gal)TH[Dip]PAIK([Ahx-Palmitoyl])[β3hF]-NH2 [Isovaleric Acid-[Lys(Gal)]-T-H-[Dpa]-P-A-I-[Lys(Ahx_Palm)]-[bhPhe]-NH2]	–	–	76
Isovaleryl-ETHAPAI[dK][β3hF]K([Ahx-Palmitoyl])[dK]A-NH2 (SMILES CCCCCCCCCCCCCCCC(=O)NCCCCCC(=O)NCCCC[C@H](NC(=O)C[C@H](Cc1ccccc1)NC(=O)[C@@H](CCCCN)NC(=O)[C@@H](NC(=O)[C@H](C)NC(=O)[C@@H]1CCCN1C(=O)[C@H](C)NC(=O)[C@H](Cc1c[nH]cn1)NC(=O)[C@@H](NC(=O)[C@H](CCC(=O)O)NC(=O)CC(C)C)[C@@H](C)O)[C@@H](C)CC)C(=O)N[C@H](CCCCN)C(=O)N[C@@H](C)C(N)=O) [Isovaleric Acid-E-T-H-A-P-A-I-[(D)Lys]-[bhPhe]-[Lys(Ahx_Palm)]-[(D)Lys]-A-NH2]	–	–	> 3000
Isovaleryl-ETH[Dip]AAI[dK][β3hF]K([Ahx-Palmitoyl])[dK]A-NH2 (SMILES CCCCCCCCCCCCCCCC(=O)NCCCCCC(=O)NCCCC[C@H](NC(=O)C[C@H](Cc1ccccc1)NC(=O)[C@@H](CCCCN)NC(=O)[C@@H](NC(=O)[C@H](C)NC(=O)[C@H](C)NC(=O)[C@@H](NC(=O)[C@H](Cc1c[nH]cn1)NC(=O)[C@@H](NC(=O)[C@H](CCC(=O)O)NC(=O)CC(C)C)[C@@H](C)O)C(c1ccccc1)c1ccccc1)[C@@H](C)CC)C(=O)N[C@H](CCCCN)C(=O)N[C@@H](C)C(N)=O) [Isovaleric Acid-E-T-H-[Dpa]-A-A-I-[(D)Lys]-[bhPhe]-[Lys(Ahx_Palm)]-[(D)Lys]-A-NH2]	–	–	183
Isovaleryl-ETH[Dip]PAIK(Ac)[β3hF]-NH2 [Isovaleric Acid-E-T-H-[Dpa]-P-A-I-[Lys(Ac)]-[bhPhe]-NH2]	175	355	–
Isovaleryl-KTH[Dip]PAIK([Ahx-Palmitoyl])[β3hF] [Isovaleric Acid-K-T-H-[Dpa]-P-A-I-[Lys(Ahx_Palm)]-[bhPhe]]	–	–	126
Isovaleryl-ETH[Dip]PAIK([Ahx-Palmitoyl])[dK](Gal)-NH2 [Isovaleric Acid-E-T-H-[Dpa]-P-A-I-[Lys(Ahx_Palm)]-d[Lys(Gal-NH2]	–	–	181
Isovaleryl-KTH[Dip]PAIE[β3hF][NMeK]([Ahx-Palmitoyl])-NH2 (lactam 1-8; SMILES CCCCCCCCCCCCCCCC(=O)NCCCCCC(=O)NCCCC[C@@H](C(N)=O)N(C)C(=O)C[C@H](Cc1ccccc1)NC(=O)[C@@H]1CCC(=O)NCCCC[C@H](NC(=O)CC(C)C)C(=O)N[C@@H]([C@@H](C)O)C(=O)N[C@@H](Cc2c[nH]cn2)C(=O)N[C@@H](C(c2ccccc2)c2ccccc2)C(=O)N2CCC[C@H]2C(=O)N[C@@H](C)C(=O)N[C@@H]([C@@H](C)CC)C(=O)N1) [Isovaleric Acid-K-T-H-[Dpa]-P-A-I-E-[bhPhe]-NMe[Lys(Ahx_Palm)]-NH2]	–	4.07	–
Isovaleryl-ETHFPAIK([AEEA-AEEA-γGlu-C18 diacid])FEPRSKGAK-NH2 [Isovaleric Acid-E-T-H-F-P-A-I-[Lys(1PEG2_1PEG2_IsoGlu_C18_Diacid)]-F-E-P-R-S-K-G-A-K-NH2]	2360	3440	–
XKTHXPAIEXXR (N-term Isovaleric Acid; Dpa4; bhPhe9; Lys(Ahx_Palm)10; C-term NH2; K and E cyclized (lactam)) [Isovaleric Acid-K-T-H-[Dpa]-P-A-I-E-[bhPhe]-[Lys(Ahx_Palm)]-R-NH2; (K and E cyclized)]	13.8	1.74	–
Isovaleryl-ETH[Dip]PAIK([γGlu-Palmitoyl])[β3hF][dK]-NH2 (SMILES CCCCCCCCCCCCCCCC(=O)N[C@@H](CCC(=O)NCCCC[C@H](NC(=O)[C@@H](NC(=O)[C@H](C)NC(=O)[C@@H]1CCCN1C(=O)[C@@H](NC(=O)[C@H](Cc1c[nH]cn1)NC(=O)[C@@H](NC(=O)[C@H](CCC(=O)O)NC(=O)CC(C)C)[C@@H](C)O)C(c1ccccc1)c1ccccc1)[C@@H](C)CC)C(=O)N[C@H](CC(=O)N[C@H](CCCCN)C(N)=O)Cc1ccccc1)C(=O)O) [Isovaleric Acid-E-T-H-[Dpa]-P-A-I-[Lys(IsoGlu_Palm)]-[bhPhe]-[(D)Lys]-NH2]	314	13.3	–
Isovaleryl-[Ala(1H-tetrazol-5-yl)]T[His(τ-Me)][Dip]PAI[NMeK][β3hF]K([Ahx-Palmitoyl])-NH2 (SMILES CCCCCCCCCCCCCCCC(=O)NCCCCCC(=O)NCCCC[C@H](NC(=O)C[C@H](Cc1ccccc1)NC(=O)[C@H](CCCCN)N(C)C(=O)[C@@H](NC(=O)[C@H](C)NC(=O)[C@@H]1CCCN1C(=O)[C@@H](NC(=O)[C@H](Cc1cn(C)cn1)NC(=O)[C@@H](NC(=O)[C@H](Cc1nnn[nH]1)NC(=O)CC(C)C)[C@@H](C)O)C(c1ccccc1)c1ccccc1)[C@@H](C)CC)C(N)=O) [Isovaleric Acid-[Tet1]-T-[(1Me)His]-[Dpa]-P-A-I-[(N-Me)Lys]-[bhPhe]-[Lys(Ahx_Palm)]-NH2]	23.9	3.94	–
Isovaleryl-ETHFPAIK([AEEA-AEEA-Ahx-C18 diacid])FEPRSKGAK-NH2 [Isovaleric Acid-E-T-H-F-P-A-I-[Lys(1Peg2_1Peg2_Ahx_C18_Diacid)]-F-E-P-R-S-K-G-A-K-NH2]	588	261	–
Isovaleryl-ETH[Dip]PAIK([PEG11-Palmitoyl])[β3hF]-NH2 [Isovaleric Acid-E-T-H-[Dpa]-P-A-I-[Lys(2PEG11_Palm)]-[bhPhe]-NH2]	44.5	1.88	–
